Here are results for one molecule from patent publication US8409833B2 (Hokko Chemical Industry Co., Ltd., priority 2003, dated 2013).

The nature of the assay: Reducing and oxidation activity of recombinant myo-inositol 2-dehydrogenase (BG10669 gene product). Type of assay: biochemical. How it is done:
The myo-inositol 2-dehydrogenase reducing activity was measured as described below. 5 μl of a reaction solution (200 mM Tris buffer (pH 8.0), 2% of NADH, 1% of scyllo-inosose) was mixed with 5 μl of an enzyme solution, and the mixture was allowed to react at 36° C. for 30 min. Immediately after the reaction, 500 μl of water was added, and the absorbance at 340 nm was measured. From the blank value of a test tube prepared by using water instead of the enzyme solution, the decrease in the absorbance at 340 nm was measured. […] The reaction rate was calculated from the absorbance increments at the respective times.

B1: myo-inositol 2-dehydrogenase: recombinant myo-inositol 2-dehydrogenase, product of BG10669 gene derived from Bacillus subtilis 168 ATCC23857 (protein, UniProt P26935 1-344, looked up)
Inositol …: MSLRIGVIGTGAIGKEHINRITNKLSGAEIVAVTDVNQEAAQKVVEQYQLNATVYPNDDSLLADENVDAVLVTSWGPAHESSVLKAIKAQKYVFCEKPLATTAEGCMRIVEEEIKVGKRLVQVGFMRRYDSGYVQLKEALDNHVIGEPLMIHCAHRNPTVGDNYTTDMAVVDTLVHEIDVLHWLVNDDYESVQVIYPKKSKNALPHLKDPQIVVIETKGGIVINAEIYVNCKYGYDIQCEIVGEDGIIKLPEPSSISLRKEGRFSTDILMDWQRRFVAAYDVEIQDFIDSIQKKGEVSGPTAWDGYIAAVTTDACVKAQESGQKEKVELKEKPEFYQSFTTVQN
On to B1, for which the “oxidation activity on myo-inositol” value (1% myo-inositol, NAD^+, pH 8.0, 25° C.) was “have an activity to oxidize myo-inositol”. The “oxidation activity on scyllo-inositol” value (1% scyllo-inositol, NAD^+, pH 8.0, 25° C.) is “no activity to oxidize scyllo-inositol”. In addition, under “NADH, pH 8.0, 36° C., 30 min”, the “reducing activity on scyllo-inosose” value is given as “have an activity to reduce scyllo-inosose”.
